# Laboratory results: PMC10397247
# T1: 4H2839-bA
# T1 chain: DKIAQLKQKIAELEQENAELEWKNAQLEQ
# T2: 4H2915-bA
# T2 chain: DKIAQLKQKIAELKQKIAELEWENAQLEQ
# T3: 4H3057-bA
# T3 chain: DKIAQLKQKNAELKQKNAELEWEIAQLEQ
# T4: 4H319-bA
# T4 chain: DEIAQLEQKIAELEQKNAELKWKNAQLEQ
# T5: 4H3277-bA
# T5 chain: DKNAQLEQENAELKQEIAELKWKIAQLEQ
# T6: 4H348-bA
# T6 chain: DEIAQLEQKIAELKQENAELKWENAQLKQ
# T7: 4H40-bA
# T7 chain: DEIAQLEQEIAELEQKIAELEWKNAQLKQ
# T8: 4H477-bA
# T8 chain: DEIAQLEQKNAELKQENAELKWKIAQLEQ
# T9: 4H492-bA
# T9 chain: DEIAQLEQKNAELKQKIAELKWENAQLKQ
# T10: 4H741-bA
# T10 chain: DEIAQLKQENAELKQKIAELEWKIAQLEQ
# T11: 4H2717-bA
# T11 chain: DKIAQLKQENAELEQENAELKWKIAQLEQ
# T12: 4H2839-bH
# T12 chain: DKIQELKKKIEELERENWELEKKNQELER
# T13: 4H2915-bH
# T13 chain: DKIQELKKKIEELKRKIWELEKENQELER
# T14: 4H3057-bH
# T14 chain: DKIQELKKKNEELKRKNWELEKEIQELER
# T15: 4H319-bH
# T15 chain: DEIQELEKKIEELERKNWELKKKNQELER
# T16: 4H3277-bH
# T16 chain: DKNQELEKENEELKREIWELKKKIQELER
# T17: 4H348-bH
# T17 chain: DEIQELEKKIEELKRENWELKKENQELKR
# T18: 4H40-bH
# T18 chain: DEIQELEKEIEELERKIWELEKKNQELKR
# T19: 4H477-bH
# T19 chain: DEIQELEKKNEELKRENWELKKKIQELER
# T20: 4H492-bH
# T20 chain: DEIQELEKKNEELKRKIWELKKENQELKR
# T21: 4H741-bH
# T21 chain: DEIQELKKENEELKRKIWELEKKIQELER
# T22: 4H2604-AA
# T22 chain: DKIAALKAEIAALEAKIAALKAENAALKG
# T23: 4H2621-AA
# T23 chain: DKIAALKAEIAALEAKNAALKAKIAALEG
# T24: 4H2760-AA
# T24 chain: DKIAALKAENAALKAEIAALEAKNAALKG
# T25: 4H2774-AA
# T25 chain: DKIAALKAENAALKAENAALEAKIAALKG
# T26: 4H2903-AA
# T26 chain: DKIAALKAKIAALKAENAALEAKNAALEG
# T27: 4H2947-AA
# T27 chain: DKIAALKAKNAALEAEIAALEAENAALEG
# T28: 4H2961-AA
# T28 chain: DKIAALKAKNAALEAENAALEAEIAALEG
# T29: 4H3049-AA
# T29 chain: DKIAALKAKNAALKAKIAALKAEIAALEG
# T30: 4H3094-AA
# T30 chain: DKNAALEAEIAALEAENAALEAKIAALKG
# T31: 4H324-AA
# T31 chain: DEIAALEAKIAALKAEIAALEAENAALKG
# T32: 4H341-AA
# T32 chain: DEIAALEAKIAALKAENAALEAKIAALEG
# T33: 4H3449-AA
# T33 chain: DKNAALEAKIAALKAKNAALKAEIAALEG
# T34: 4H3619-AA
# T34 chain: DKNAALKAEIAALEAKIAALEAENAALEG
# T35: 4H3629-AA
# T35 chain: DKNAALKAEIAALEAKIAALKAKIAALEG
# T36: 4H3777-AA
# T36 chain: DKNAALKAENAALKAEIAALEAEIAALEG
# T37: 4H380-AA
# T37 chain: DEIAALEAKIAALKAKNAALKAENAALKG
# T38: 4H3915-AA
# T38 chain: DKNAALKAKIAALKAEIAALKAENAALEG
# T39: 4H3974-AA
# T39 chain: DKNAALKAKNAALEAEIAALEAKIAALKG
# T40: 4H432-AA
# T40 chain: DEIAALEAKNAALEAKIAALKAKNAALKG
# T41: 4H446-AA
# T41 chain: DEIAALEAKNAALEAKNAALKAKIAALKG
# T42: 4H63-AA
# T42 chain: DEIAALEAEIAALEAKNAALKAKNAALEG
# B1: 4H2839-bA (peptide)
# chain: DKIAQLKQKIAELEQENAELEWKNAQLEQ
# B2: 4H2717-bA (peptide)
# chain: DKIAQLKQENAELEQENAELKWKIAQLEQ
# B3: 4H2839-bH (peptide)
# chain: DKIQELKKKIEELERENWELEKKNQELER
# B4: 4H2604-AA (peptide)
# chain: DKIAALKAEIAALEAKIAALKAENAALKG
# What was measured:
# 4H2839-bA = molecular target: T1, 4H2839-bA; assay: two-hybrid library CCNG1;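 further: natural log of median RNA to DNA barcode read ratio; higher means stronger binding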
# 4H2915-bA = molecular target: T2, 4H2915-bA; assay: two-hybrid library CCNG1;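 further: natural log of median RNA to DNA barcode read ratio; higher means stronger binding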
# 4H3057-bA = molecular target: T3, 4H3057-bA; assay: two-hybrid library CCNG1;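 further: natural log of median RNA to DNA barcode read ratio; higher means stronger binding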
# 4H319-bA = molecular target: T4, 4H319-bA; assay: two-hybrid library CCNG1;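 further: natural log of median RNA to DNA barcode read ratio; higher means stronger binding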
# 4H3277-bA = molecular target: T5, 4H3277-bA; assay: two-hybrid library CCNG1
# 4H348-bA = molecular target: T6, 4H348-bA; assay: two-hybrid library CCNG1
# 4H40-bA = molecular target: T7, 4H40-bA; assay: two-hybrid library CCNG1
# 4H477-bA = molecular target: T8, 4H477-bA; assay: two-hybrid library CCNG1
# 4H492-bA = molecular target: T9, 4H492-bA; assay: two-hybrid library CCNG1
# 4H741-bA = molecular target: T10, 4H741-bA; assay: two-hybrid library CCNG1
# 4H2717-bA = molecular target: T11, 4H2717-bA; assay: two-hybrid library CCNG1
# 4H2839-bH = molecular target: T12, 4H2839-bH; assay: two-hybrid library CCNG1
# 4H2915-bH = molecular target: T13, 4H2915-bH; assay: two-hybrid library CCNG1
# 4H3057-bH = molecular target: T14, 4H3057-bH; assay: two-hybrid library CCNG1
# 4H319-bH = molecular target: T15, 4H319-bH; assay: two-hybrid library CCNG1
# 4H3277-bH = molecular target: T16, 4H3277-bH; assay: two-hybrid library CCNG1
# 4H348-bH = molecular target: T17, 4H348-bH; assay: two-hybrid library CCNG1
# 4H40-bH = molecular target: T18, 4H40-bH; assay: two-hybrid library CCNG1
# 4H477-bH = molecular target: T19, 4H477-bH; assay: two-hybrid library CCNG1
# 4H492-bH = molecular target: T20, 4H492-bH; assay: two-hybrid library CCNG1
# 4H741-bH = molecular target: T21, 4H741-bH; assay: two-hybrid library CCNG1
# 4H2604-AA = molecular target: T22, 4H2604-AA; assay: two-hybrid library CCmax
# 4H2621-AA = molecular target: T23, 4H2621-AA; assay: two-hybrid library CCmax; conditions: mean of both orientations
# 4H2760-AA = molecular target: T24, 4H2760-AA; assay: two-hybrid library CCmax; conditions: mean of both orientations
# 4H2774-AA = molecular target: T25, 4H2774-AA; assay: two-hybrid library CCmax; conditions: mean of both orientations
# 4H2903-AA = molecular target: T26, 4H2903-AA; assay: two-hybrid library CCmax; conditions: mean of both orientations
# 4H2947-AA = molecular target: T27, 4H2947-AA; assay: two-hybrid library CCmax; conditions: mean of both orientations
# 4H2961-AA = molecular target: T28, 4H2961-AA; assay: two-hybrid library CCmax; conditions: mean of both orientations
# 4H3049-AA = molecular target: T29, 4H3049-AA; assay: two-hybrid library CCmax; conditions: mean of both orientations
# 4H3094-AA = molecular target: T30, 4H3094-AA; assay: two-hybrid library CCmax; conditions: mean of both orientations
# 4H324-AA = molecular target: T31, 4H324-AA; assay: two-hybrid library CCmax; conditions: mean of both orientations
# 4H341-AA = molecular target: T32, 4H341-AA; assay: two-hybrid library CCmax; conditions: mean of both orientations
# 4H3449-AA = molecular target: T33, 4H3449-AA; assay: two-hybrid library CCmax; conditions: mean of both orientations
# 4H3619-AA = molecular target: T34, 4H3619-AA; assay: two-hybrid library CCmax; conditions: mean of both orientations
# 4H3629-AA = molecular target: T35, 4H3629-AA; assay: two-hybrid library CCmax; conditions: mean of both orientations
# 4H3777-AA = molecular target: T36, 4H3777-AA; assay: two-hybrid library CCmax; conditions: mean of both orientations
# 4H380-AA = molecular target: T37, 4H380-AA; assay: two-hybrid library CCmax; conditions: mean of both orientations
# 4H3915-AA = molecular target: T38, 4H3915-AA; assay: two-hybrid library CCmax; conditions: mean of both orientations
# 4H3974-AA = molecular target: T39, 4H3974-AA; assay: two-hybrid library CCmax; conditions: mean of both orientations
# 4H432-AA = molecular target: T40, 4H432-AA; assay: two-hybrid library CCmax; conditions: mean of both orientations
# 4H446-AA = molecular target: T41, 4H446-AA; assay: two-hybrid library CCmax; conditions: mean of both orientations
# 4H63-AA = molecular target: T42, 4H63-AA; assay: two-hybrid library CCmax; conditions: mean of both orientations
binder,measurement,setting,value
B1,interaction score,4H2839-bA,0.104
same,interaction score,4H2915-bA,-0.223
same,interaction score,4H3057-bA,-0.0141
same,interaction score,4H319-bA,1.61
same,interaction score,4H3277-bA,-0.969
same,interaction score,4H348-bA,-0.533
same,interaction score,4H40-bA,1.35
same,interaction score,4H477-bA,-0.768
same,interaction score,4H492-bA,-0.582
same,interaction score,4H741-bA,-0.816
B2,interaction score,4H2717-bA,1.02
same,interaction score,4H2839-bA,-0.857
same,interaction score,4H2915-bA,-0.721
same,interaction score,4H3057-bA,1.23
same,interaction score,4H3277-bA,-0.874
same,interaction score,4H348-bA,-1.06
same,interaction score,4H40-bA,-1.55
same,interaction score,4H477-bA,0.776
same,interaction score,4H492-bA,-1.39
same,interaction score,4H741-bA,-1.48
B3,interaction score,4H2839-bH,1.04
same,interaction score,4H2915-bH,0.242
same,interaction score,4H3057-bH,0.0652
same,interaction score,4H319-bH,1.44
same,interaction score,4H3277-bH,-1.06
same,interaction score,4H348-bH,0.581
same,interaction score,4H40-bH,0.0596
same,interaction score,4H477-bH,-0.629
same,interaction score,4H492-bH,-0.474
same,interaction score,4H741-bH,-0.868
B4,interaction score,4H2604-AA,1.78
same,interaction score,4H2621-AA,-0.139
same,interaction score,4H2760-AA,-1.02
same,interaction score,4H2774-AA,-1.79
same,interaction score,4H2903-AA,-0.407
same,interaction score,4H2947-AA,-1.68
same,interaction score,4H2961-AA,-1.69
same,interaction score,4H3049-AA,-0.492
same,interaction score,4H3094-AA,-1.23
same,interaction score,4H324-AA,2.07
same,interaction score,4H341-AA,0.155
same,interaction score,4H3449-AA,-0.758
same,interaction score,4H3619-AA,-0.188
same,interaction score,4H3629-AA,1.84
same,interaction score,4H3777-AA,-1.38
same,interaction score,4H380-AA,1.01
same,interaction score,4H3915-AA,0.216
same,interaction score,4H3974-AA,-0.774
same,interaction score,4H432-AA,-1.37
same,interaction score,4H446-AA,-1.79
same,interaction score,4H63-AA,-1.37
